The target of series [1] is T1, clostripain (Hathewaya histolytica, UniProt P09870).
T1 construct: is a two-chain proteinase that can be isolated from Clostridium histolyticum; purchased Worthington LS001641
Put plainly: Clostripain cleavage, SDS-PAGE analysis. The note with it: 5 U clostripain/mg. It is filed as in vitro ADME, Clostridium histolyticum. As to the method:
(§1) Enzymatic digestion of PEP07843 and the three new variants was performed using clostripain from Worthington (No. LS001641) in 25 mM NaPi buffer pH 7.6, 150 mM NaCl, 1 mM CaAc, 2.5 mM DTT. Clostripain was dissolved freshly before initiation of the experiment.
(§2) In the following experiment, the clostripain amount was increased to 5 U/mg ABD variant, and the samples were incubated for 0, 1, 2, 4, 6, 8 and 22 h at 25° C. in a thermomixer with mild shaking at 600 rpm.
(§3) Reactions were stopped by addition of 4×SDS sample buffer followed by incubation for 15 min at 70° C. (for SDS PAGE analysis) or by addition of trifluoroacetic acid (TFA) to a final concentration of 0.3%, which lowers the pH to approximately 2, and freezing at −80° C. (for LC/MS analysis).
(§4) Controls were reactions without clostripain and omitting DTT which […] clostripain activity.
(§5) Analysis of samples incubated with clostripain for up to 22 h was performed by SDS-PAGE using NuPAGE 4-12% gels from Invitrogen (see FIG. 3). In FIG. 3, lane S indicates sharp molecular weight marker standard (molecular weights 3.5, 10, 15, 20, 30, 40, 50, 60, 80, 110 and 160 kDa), lane B indicates a blank sample with clostripain but no ABD variant, and lanes 0-22 indicate ABD variant samples taken at the indicated incubation times in hours.

Series [2] has as its system T2, clostripain.
T2 construct: is a two-chain proteinase that can be isolated from Clostridium histolyticum; purchased Worthington LS001641
Put plainly: Clostripain cleavage, SDS-PAGE analysis. It is filed as in vitro ADME, Clostridium histolyticum. The settings on record: Clostridium histolyticum, clostripain (isolated protease), pH 7.6, 5 U clostripain/mg, 25° C.; for metabolised at 22 h: read-out: cleaved after 22 h. As for the experimental part:
as §1, §2, §3, §4, §5

Series [3] has as its target T1, clostripain. Put plainly: Clostripain cleavage, LC/MS analysis. It is filed as in vitro ADME, Clostridium histolyticum. As for the experimental part: as §1
(§6) In the first experiment, 0.2 U clostripain/mg ABD variant was incubated for up to 20 h at 25° C., but only a low level of cleavage was detected by SDS-PAGE and LC/MS analysis.
as §2, §3
(§7) LC/MS analyses were performed using an Agilent 1100 LC/MSD system, equipped with API-ESI and a single quadruple mass analyzer. 10 μl of each cleavage mixture was injected on a Zorbax 300SB-C8 Narrow-Bore column (2.1×150 mm, 3.5 μm, Agilent Technologies) at a flow-rate of 0.5 ml/min. Elution was performed using a linear gradient of 10-70% solution B for 15 min at 0.5 ml/min. The separation was performed at 30° C. The ion signal and the absorbance at 280 and 220 nm were monitored.
(§8) FIGS. 4 and 5 show the LC/MS analysis of ABD variant samples incubated for up to 20 h with 0.2 U and up to 22 h with 5 U respectively of clostripain per mg ABD variant. The main peak was integrated, and the area transformed to % of remaining intact ABD variant at t=0.
(§9) The main peak was integrated and the area transformed to % of remaining intact ABD at t=0. The LC/MS analysis described above was used for analysis.

The test system of series [4] is T2, clostripain. Briefly: Clostripain cleavage, LC/MS analysis. It is filed as in vitro ADME, Clostridium histolyticum. The note with it: Clostridium histolyticum, clostripain (isolated protease), read-out: remaining % ABD variant; for remaining at 0.25 h: 15 min; for remaining at 0.5 h: 30 min; for remaining at 20 h: 1200 min. As to the method:
as §1, §6, §2, §3, §7, §8, §9

For series [5], the target named is T3, cynomolgus serum albumin (CSA) (Macaca fascicularis, UniProt A2V9Z4).
T3 construct: CSA (purified in-house from cynomolgus serum); from tissue; host or cells: cynomolgus serum
Briefly: Biacore analysis of binding to CSA. The note with it: CSA immobilized, Biacore2000; relative KD only. (In general: SPR reads the build-up and loss of mass on a sensor chip optically.)

The target in series [6] is human serum albumin (HSA) (Homo sapiens, UniProt P02768). Put plainly: biochemical.
Procedure: Biosensor analysis on a Biacore2000 instrument (GE Healthcare) was performed with HSA (Albucult®, Novozymes), CSA (purified in-house from cynomolgus serum), RSA (Sigma-Aldrich, Cat. No. A6272) and MSA (Sigma-Aldrich, Cat. No. A3559) immobilized by amine coupling onto the carboxylated dextran layer of the surfaces of CM-5 chips (research grade; GE Healthcare) according to the manufacturer's recommendations.
ABD variants were used as analytes and were injected in duplicates over the chip at three analyte concentrations (2.5, 10 and 40 nM). The association phase was 5 min followed by a long dissociation phase (60 min) to account at least partially for the slow off-rate of the ABD variants. […] Therefore, all KD's are given as relative KD values only.
The results were analyzed with BiaEvaluation software (GE Healthcare). Curves of the blank surface and buffer injection were subtracted from the curves of the ligand surfaces.
The Biacore 2000 instrument has a technical limitation which hinders measurements of very high affinity. […] After subtraction of reference surface and buffer injection, curves were fitted to a 1:1 (Langmuir) binding model using BIAevaluation software with correction for mass transfer and with RUmax set as a local parameter.
Series [7] in a line: Circular dichroism analysis, variable temperature measurement. It is filed as physicochemical. As to the method: Secondary structure of ABD variants was analyzed by circular dichroism (CD) spectroscopy using a scan from 195-250 nm before and after the variable temperature measurement (see below). Purified albumin binding polypeptide variants were diluted in 1×PBS, to final concentration of 0.5 mg/ml. Circular dichroism (CD) analysis was performed on a Jasco J-810 spectropolarimeter in a cell with an optical path-length of 1 mm. Alpha helical proteins show typical minima at 208 and 222 nm.
Variable temperature measurement was used to determine the melting temperature, Tm. In these measurements, the absorbance was measured at 221 nm from 20° C. to 90° C., with a temperature slope of 5° C./min.
The melting temperatures of the ABD variants were calculated by determining the midpoint of the transtition in the CD vs. temperature plot.
The CD spectra before and after heat treatment were compared in order to detect potential heat denaturation of the proteins. […] FIGS. 2A and 2B show the CD spectra of the new ABD variants and of PEP07843 (SEQ ID NO:27) for comparison.
On the technique in general: CD spectra are sensitive to the conformation of chiral molecules.

Setting [8] is: pH 7.6, 0.2 U clostripain/mg, 120 min.
[9] abbreviates: pH 7.6, 5 U clostripain/mg, 2 h.

Like-named read-outs stand apart in the source and are kept apart here. Where no end group is shown, it is not given here.

T1 sequence (P09870 191-526): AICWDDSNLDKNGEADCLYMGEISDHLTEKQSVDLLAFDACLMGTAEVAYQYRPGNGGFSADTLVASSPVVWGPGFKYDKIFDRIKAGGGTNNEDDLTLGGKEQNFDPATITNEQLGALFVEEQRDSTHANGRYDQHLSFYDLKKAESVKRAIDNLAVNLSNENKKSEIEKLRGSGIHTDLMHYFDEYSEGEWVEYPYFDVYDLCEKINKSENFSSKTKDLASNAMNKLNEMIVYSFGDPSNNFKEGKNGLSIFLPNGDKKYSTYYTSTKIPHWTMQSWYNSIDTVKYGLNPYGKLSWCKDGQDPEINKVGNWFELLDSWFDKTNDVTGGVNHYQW
T1 sequence (P09870 51-181): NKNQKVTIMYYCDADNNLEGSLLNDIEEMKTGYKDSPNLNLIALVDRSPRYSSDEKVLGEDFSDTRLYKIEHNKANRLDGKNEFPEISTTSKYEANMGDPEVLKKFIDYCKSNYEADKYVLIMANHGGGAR
Sequence of human serum albumin (HSA) (P02768 25-609): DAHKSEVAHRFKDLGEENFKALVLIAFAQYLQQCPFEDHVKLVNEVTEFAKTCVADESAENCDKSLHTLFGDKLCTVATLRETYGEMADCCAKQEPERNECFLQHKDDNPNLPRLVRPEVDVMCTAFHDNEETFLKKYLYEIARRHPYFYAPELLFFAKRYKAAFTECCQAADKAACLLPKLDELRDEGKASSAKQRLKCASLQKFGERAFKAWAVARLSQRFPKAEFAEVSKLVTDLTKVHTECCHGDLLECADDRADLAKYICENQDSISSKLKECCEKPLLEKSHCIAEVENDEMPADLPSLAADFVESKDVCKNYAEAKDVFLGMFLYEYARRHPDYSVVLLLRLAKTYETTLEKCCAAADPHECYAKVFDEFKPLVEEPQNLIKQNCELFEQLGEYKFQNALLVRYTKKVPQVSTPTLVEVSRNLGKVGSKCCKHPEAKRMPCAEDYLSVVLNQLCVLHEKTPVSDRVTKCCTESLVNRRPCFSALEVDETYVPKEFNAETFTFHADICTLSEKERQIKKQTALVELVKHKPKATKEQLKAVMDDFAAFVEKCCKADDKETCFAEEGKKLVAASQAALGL
T3 sequence (A2V9Z4 25-608): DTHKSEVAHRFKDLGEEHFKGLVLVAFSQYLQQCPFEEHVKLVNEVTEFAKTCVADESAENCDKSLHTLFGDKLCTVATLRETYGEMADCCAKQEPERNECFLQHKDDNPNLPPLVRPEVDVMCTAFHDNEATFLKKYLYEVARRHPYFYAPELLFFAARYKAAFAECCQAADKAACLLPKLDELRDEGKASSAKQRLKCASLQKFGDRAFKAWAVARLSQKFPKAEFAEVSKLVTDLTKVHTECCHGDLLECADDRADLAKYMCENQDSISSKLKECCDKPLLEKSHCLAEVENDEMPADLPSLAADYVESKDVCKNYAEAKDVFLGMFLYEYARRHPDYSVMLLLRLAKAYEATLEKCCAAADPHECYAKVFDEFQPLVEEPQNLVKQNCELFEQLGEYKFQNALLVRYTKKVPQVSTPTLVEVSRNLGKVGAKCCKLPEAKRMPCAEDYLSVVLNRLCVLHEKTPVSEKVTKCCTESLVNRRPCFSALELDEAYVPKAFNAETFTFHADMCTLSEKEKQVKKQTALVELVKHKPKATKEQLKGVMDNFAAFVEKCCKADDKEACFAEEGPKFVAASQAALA

Turning to “GSSLAEAKEAANAELDSYGVSDFYKNLIDKAKTVEGVEALKDAILAALP [PEP12379]”, the “resistance to clostripain cleavage, comparison” value (“resistance” below) with clostripain [1] is reported as “more resistant to clostripain cleavage as compared to PEP07843”. Moreover, in the series with clostripain [1] (25° C.), the “incubation time at which some cleavage was seen” value (from here on “incubation time”) was 4 to 8 h and the “cleaved after 22 h” value was roughly 90%. For the same sequence, the metabolised at 22 h in the series with clostripain [2] was roughly 90%. The “remaining % ABD variant” value with clostripain [3] (0.2 U clostripain/mg, 0 min) stood at 100%. Also, the “remaining % ABD variant” value in the series with clostripain [3] (5 U clostripain/mg, 0 h) is given as 100%. Also, in the series on clostripain [4] (pH 7.6, 0.2 U clostripain/mg), the amount remaining at 2 min was 100%, the share remaining at 5 min was 101%, the fraction remaining at 0.25 h worked out at 101% and the share remaining at 0.5 h is 99%. Also, in the series on clostripain [4] (pH 7.6, 0.2 U clostripain/mg), the share remaining at 20 h is 96%. The share remaining at 2 h with clostripain [4] (setting [8]) was determined as 99%. Also, in the series on clostripain [4] (pH 7.6, 5 U clostripain/mg), the share remaining at 1 h turned out to be 92%, the share remaining at 4 h turned out to be 71%, the fraction remaining at 6 h turned out to be 58% and the amount remaining at 8 h is 47%. Further, the amount remaining at 22 h with clostripain [4] (pH 7.6, 5 U clostripain/mg) stood at 4%. In addition, the amount remaining at 2 h with clostripain [4] (setting [9]) came out at 85%.

With “GSSLAEAKEAANAELDSYGVSDFYKRLIDKAKTVEGVEALKDAILAALP [PEP07843, reference compound]”, the “cleaved after 4-22 h” value with clostripain [1] (25° C., 4-22 h) is reported as 100%. In addition, the “cleaved after 2 h” value with clostripain [1] (25° C., 2 h) is on record as roughly 75%. Further, in the series on clostripain [2] (4-22 h, read-out: cleaved after 4-22 h), the metabolised stood at 100%. Moreover, the metabolised at 2 h in the series on clostripain [2] (2 h, read-out: cleaved after 2 h) was roughly 75%. Also, in the series with clostripain [3] (0.2 U clostripain/mg, 0 min), the “remaining % ABD variant” value was 100%. The “remaining % ABD variant” value with clostripain [3] (0.2 U clostripain/mg, 120 min) is on record as 94%. In addition, the “remaining % ABD variant” value in the series with clostripain [3] (5 U clostripain/mg, 0 h) amounted to 100%. The “remaining % ABD variant” value with clostripain [3] (5 U clostripain/mg, 2 h) came out at 15%. Besides, in the series on clostripain [4] (pH 7.6, 0.2 U clostripain/mg), the share remaining at 2 min was found to be 100%, the share remaining at 5 min is 101%, the amount remaining at 0.25 h was 100% and the fraction remaining at 0.5 h amounted to 100%. In addition, the fraction remaining at 20 h in the series on clostripain [4] (pH 7.6, 0.2 U clostripain/mg) was 54%. Further, in the series with clostripain [4] (pH 7.6, 5 U clostripain/mg), the amount remaining at 1 h amounted to 46%, the fraction remaining at 4 h came out at 0%, the amount remaining at 6 h worked out at 0% and the share remaining at 8 h was found to be 0%. Also, in the series with clostripain [4] (pH 7.6, 5 U clostripain/mg), the share remaining at 22 h turned out to be 0%. The sequence further gave a Kd in series [5] of 9.8 pM. Moreover, the equilibrium dissociation constant (Kd) in series [6] turned out to be 6.7 pM.

For “GSSLAEAKEAANAELDSYGVSDFYKKLIDKAKTVEGVEALKDAILAALP [PEP12380]”, the “thermal stability, comparison of variants” value in series [7] was “highest thermal stability of the three variants”. Also, the “resistance” value in the series with clostripain [1] is “highest level of resistance to cleavage”. In the series with clostripain [1] (25° C.), the “incubation time” value fell in the range of 6 to 8 h and the “cleaved after 22 h” value is roughly 50%. The metabolised at 22 h with clostripain [2] was roughly 50%. For the same sequence, in the series with clostripain [3] (0.2 U clostripain/mg, 0 min), the “remaining % ABD variant” value came to 100%. The “remaining % ABD variant” value in the series with clostripain [3] (5 U clostripain/mg, 0 h) was 100%. In addition, the “protease stability, comparison” value with clostripain [3] (as compared to PEP12379, PEP12381 and PEP07843) was “superior properties with respect to protease stability”. In addition, the “increase of degradation products over time, comparison” value with clostripain [3] (both low and high clostripain concentrations) is listed as “lowest increase of degradation products over time”. In the series on clostripain [4] (pH 7.6, 0.2 U clostripain/mg), the amount remaining at 2 min turned out to be 100%, the share remaining at 5 min was determined as 101%, the share remaining at 0.25 h came to 101% and the amount remaining at 0.5 h was 101%. Besides, the fraction remaining at 20 h in the series with clostripain [4] (pH 7.6, 0.2 U clostripain/mg) came to 100%. The fraction remaining at 2 h in the series with clostripain [4] (setting [8]) turned out to be 100%. In the series on clostripain [4] (pH 7.6, 5 U clostripain/mg), the amount remaining at 1 h was 96%, the share remaining at 4 h stood at 84%, the fraction remaining at 6 h was 77% and the amount remaining at 8 h is 69%. Moreover, the fraction remaining at 22 h in the series with clostripain [4] (pH 7.6, 5 U clostripain/mg) is 30%. The share remaining at 2 h with clostripain [4] (setting [9]) worked out at 93%. This sequence yielded a Kd in series [5] of 11 pM. Moreover, the Kd in series [6] was determined as 7.5 pM.

For the sequence “GSSLAEAKEAANAELDSYGVSDFYKSLIDKAKTVEGVEALKDAILAALP [PEP12381]”, the “resistance” value in the series with clostripain [1] is on record as “more resistant to clostripain cleavage as compared to PEP07843”. Moreover, in the series with clostripain [1] (25° C.), the “incubation time” value is 4 to 8 h and the “cleaved after 22 h” value is recorded as roughly 100%. Besides, in the series on clostripain [2], the metabolised at 22 h is roughly 100%. For the same sequence, the “remaining % ABD variant” value with clostripain [3] (0.2 U clostripain/mg, 0 min) is on record as 100%. The “remaining % ABD variant” value with clostripain [3] (5 U clostripain/mg, 0 h) was determined as 100%. For the same sequence, in the series with clostripain [4] (pH 7.6, 0.2 U clostripain/mg), the fraction remaining at 2 min turned out to be 101%, the amount remaining at 5 min was 100%, the fraction remaining at 0.25 h was found to be 100% and the fraction remaining at 0.5 h was 100%. For the same sequence, the share remaining at 20 h in the series with clostripain [4] (pH 7.6, 0.2 U clostripain/mg) is 97%. In addition, in the series on clostripain [4] (setting [8]), the fraction remaining at 2 h is 99%. Also, in the series with clostripain [4] (pH 7.6, 5 U clostripain/mg), the share remaining at 1 h came out at 91%, the amount remaining at 4 h turned out to be 60%, the share remaining at 6 h stood at 44% and the fraction remaining at 8 h stood at 31%. For the same sequence, the fraction remaining at 22 h in the series on clostripain [4] (pH 7.6, 5 U clostripain/mg) came out at 0%. For the same sequence, the share remaining at 2 h in the series on clostripain [4] (setting [9]) is 79%.

Broadly, the Kd is the constant that tells how readily two partners part at equilibrium. Low values mean a tighter complex, high ones a looser complex.

The values above are taken from patent publication US10155792B2, “Albumin binding polypeptide” (priority 2012, dated 2018).
